# Target: Bacillus anthracis ribonucleotide reductase subunit NrdF (Bacillus anthracis) (UniProt Q81TB4)
# Test: crystal structure
substance,measurement,value
Bacillus anthracis ribonucleotide reductase subunit NrdF (from UniProt Q81TB4 1-322) (enzyme),stoichiometry N,2
